Test [1] has as its target FcγRs (mouse (endogenous in C57BL/6 mice)).
Test [2] concerns the target T1, Recombinant mouse CD27-human Fc (mouse, UniProt P41272 24-182).
T1 construct: CD27, mouse; Captured by anti-human IgG on the chip; no catalogue number is printed; also called CD27-Fc; mouse CD27 protein; source: bought: R&D systems
T1 sequence (looked up): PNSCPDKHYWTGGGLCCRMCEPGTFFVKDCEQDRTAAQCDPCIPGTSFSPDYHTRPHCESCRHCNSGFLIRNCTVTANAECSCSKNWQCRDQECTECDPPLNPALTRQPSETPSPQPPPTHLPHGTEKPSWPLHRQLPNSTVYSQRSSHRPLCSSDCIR
The test can be described thus: SPR; apparent; Biacore T200, HBS-EP+; mouse CD27-human Fc captured on anti-human IgG coupled to a CM5 chip; CD70 fusion proteins (1.56, 6.25, 25 and 100 nM) injected at 30 ul/min; KD from ka and kd.

In test [3] the target is dimer of trimer CD70-Fc fusion protein (dtCD70-Fc) (mouse) (UniProt O55237). The test can be described thus: SDS-PAGE under non-reducing and reducing conditions; 5 ug purified protein on a 10% SDS-polyacrylamide gel, Coomassie blue; disulfide-linked dimer of the Fc fusion chain.
Test [4] has the same target. As to the kind of experiment: SPR; about 2000 RU of dtCD70-Fc or anti-CD27 immobilised on a CM5 chip by amine coupling; mouse FcRn (0, 0.8, 4, 20, 100, 500 nM) injected 3 min at 30 ul/min in HBS-EP+ pH 6; KD from steady-state binding levels. A general note: SPR reads the build-up and loss of mass on a sensor chip optically.
Test [5] concerns the target anti-CD27 mouse IgG1 (recombinant, from hybridoma AT124-1) (mouse). The test is described as above.

By stoichiometry N is commonly meant the number of molecules, sites or subunits per partner or assembly.

Read-outs that look alike come from different tables or passages of the source.

For the molecule “Endo H treated dtCD70-Fc (from UniProt O55237 41-195; O55237 41-195; O55237 41-195) (Fc fusion)”, the OT-I T cell expansion in vivo during the primary response, Endo H treated dtCD70-Fc (wild-type Fc) against Endo H treated dtCD70-Fc(D265A) in test [1] is 3 fold. For “dimer of trimer CD70-Fc fusion protein (dtCD70-Fc) (from UniProt O55237 41-195; O55237 41-195; O55237 41-195)”, in test [2], the Kd was 0.6 nM. For the same molecule, the stoichiometry N in test [3] amounted to 2.

B1: Soluble trimeric CD70 (tCD70) (ligand, mouse, UniProt O55237 41-195, looked up)
chain: SGLLSKQQQRLLEHPEPHTAELQLNLTVPRKDPTLRWGAGPALGRSFTHGPELEEGHLRIHQDGLYRLHIQVTLANCSSPGSTLQHRATLAVGICSPAAHGISLLRGRFGQDCTVALQRLTYLVHGDVLCTNLTLPLLPSRNADETFFGVQWICP
notes: CD70, mouse, extracellular domain S41-P195; Predicted chain MW 51.5 kDa; also called CD4 fusion protein; not shown: CD4 domains 3 and 4 (mouse), N-terminal, kept
B1: the Kd in test [2] (both partners purified) came out at 1.2 nM.

B2: recombinant mouse FcRn (receptor)
chain: SETRPPLMYHLTAVSNPSTGLPSFWATGWLGPQQYLTYNSLRQEADPCGAWMWENQVSWYWEKETTDLKSKEQLFLEALKTLEKILNGTYTLQGLLGCELASDNSSVPTAVFALNGEEFMKFNPRIGNWTGEWPETEIVANLWMKQPDAARKESEFLLNSCPERLLGHLERGRRNLEWKEPPSMRLKARPGNSGSSVLTCAAFSFYPPELKFRFLRNGLASGSGNCSTGPNGDGSFHAWSLLEVKRGDEHHYQCQVEHEGLAQPLTVDLDSSARSS
For B2, the Kd came out at 46 nM in test [4] and 49 nM in test [5].
